The target in the assay is Collagen I. In words: cell-based or functional assay.

B1: GPVI-CD133 construct (bispecific fusion protein: soluble GPVI-Fc chemically conjugated via SPDP to the CD133-reactive monoclonal antibody W6B3C1) (protein, part only; not given: Fc and anti-CD133 antibody chains, human, not shown: a dimerising Fc or GST)
chain, part: QSGPLPKPSLQALPSSLVPLEKPVTLRCQGPPGVDLYRLEKLSSSRYQDQAVLFIPAMKRSLAGRYRCSYQNGSLWSLPSDQLELVATGVFAKPSLSAQPGPAVSSGGDVTLQCQTRYGFDQFALYKEGDPAPYKNPERWYRASFPIITVTAAHSGTYRCYSFSSRDPYLWSAPSDPLELVVTGTSVTPSRLPTEPPSSVAEFSEATAELTVSFTNKVFTTETSRSITTSPKESDSPAGPARQYYTK
modifications: amino groups modified with SPDP (N-succinimidyl 3-(2-pyridyldithio)-propionate), reduced with DTT and conjugated to the SPDP-modified CD133 antibody
The molecule B1 displayed an adhesion of EPCs (CD34+ cells) to immobilized collagen I, flow chamber model (2,000 sec^-1), fold against collagen alone of 10 fold and an adhesion of EPCs (CD34+ cells) to immobilized collagen I, static adhesion assay, fold against collagen alone of 5 fold.

For the origin of these results see US20100068145A1.
